How the values were obtained:
[1] = target: T1, LAG3 on cells (recombinant CHO cells expressing Lag3) (human, UniProt P18627 29-525); assay: cell-based or functional assay
T1 sequence: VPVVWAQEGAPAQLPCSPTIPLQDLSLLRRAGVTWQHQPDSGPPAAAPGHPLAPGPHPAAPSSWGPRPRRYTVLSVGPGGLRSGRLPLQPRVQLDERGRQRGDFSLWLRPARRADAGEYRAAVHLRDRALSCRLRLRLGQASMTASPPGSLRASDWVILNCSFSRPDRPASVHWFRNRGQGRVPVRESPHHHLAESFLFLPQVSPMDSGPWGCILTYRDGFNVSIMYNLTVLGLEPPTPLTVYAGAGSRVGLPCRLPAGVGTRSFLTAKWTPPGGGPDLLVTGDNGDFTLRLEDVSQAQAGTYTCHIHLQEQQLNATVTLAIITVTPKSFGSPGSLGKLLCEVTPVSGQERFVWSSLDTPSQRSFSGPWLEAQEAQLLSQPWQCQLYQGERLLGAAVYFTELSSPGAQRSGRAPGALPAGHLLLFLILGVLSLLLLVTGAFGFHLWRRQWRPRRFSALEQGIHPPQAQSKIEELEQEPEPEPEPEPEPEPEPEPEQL

[2] = target: T1, LAG3 on cells (recombinant CHO cells …); assay: cell ELISA on recombinant CHO cells expressing Lag3
Method: After washing (1×90 μl in PBST) cells were fixed by addition of 30 μl/well glutaraldehyde to a final concentration of 0.05% (Sigma Cat.No: G5882), 10 min at room temperature. After washing (3×90 μl/well with PBST-buffer) 25 μl/well goat anti-Human Ig κ chain antibody-HRP conjugate (Milipore, AP502P) was added in a 1:1000 dilution and incubated at RT for 1 h. After washing (3×90 μl/well with PBST-buffer) 25 μl/well TMB substrate (Roche, 11835033001) was added and incubated for 6-10 min. Measurement took place on a Tecan Safire 2 instrument at 370/492 nm.

cynomolgus LAG3 on cells [3] = target: T2, cynomolgus LAG3 on cells (cynomolgus); assay: flow cytometry on HEK293F cells transfected with cyno-LAG-3, antibody 10 µg/ml
T2 construct: whole, on cells; also called cyno-LAG-3; cynoLAG3
Method: 1.5×10⁵ cells/well were seeded into 96-well plates. […] HEK cells were incubated with indicated antibodies for 45 min on ice, washed twice with 200 μl ice-cold PBS buffer containing 2% FBS, before secondary antibody (APC-labelled goat anti-human IgG-kappa, Invitrogen, cat.no. #MH10515) was added (1:50 diluted in FACS-Puffer/well) and further incubated for 30 min on ice. Cells were again washed twice with 200 μl ice-cold PBS/2% FBS buffer before samples were finally resuspended in 150 μl FACS buffer and binding was measured on FACS CANTO-II HTS Module.

cynomolgus LAG3 on cells [4] = target: T2, cynomolgus LAG3 on cells; assay: flow cytometry on activated cynomolgus PBMC, 10 µg/ml (only 2nd Ab (rb): 5.26)
Method: Thus, cynomolgus peripheral blood mononuclear cells (PBMC) were prepared from fresh cynomolgus blood and were then activated by CD3/CD28 pre-treatment (1 μg/ml) for 2-3 days. […] After staining, cells were washed two times with PBS/2% FCS and analyzed on a FACS Fortessa (BD).

biotinylated-Lag3 = target: T3, biotinylated-Lag3 (UniProt P18627 23-450, limits assumed, biotinylated); assay: ELISA, inhibition of biotinylated-Lag3 binding to MHC-II on A375 cells (competitor MHC-II)
T3 construct: Probably a human LAG3 ECD construct; also called Lag3 (MHCII/ELISA)
T3 sequence (looked up): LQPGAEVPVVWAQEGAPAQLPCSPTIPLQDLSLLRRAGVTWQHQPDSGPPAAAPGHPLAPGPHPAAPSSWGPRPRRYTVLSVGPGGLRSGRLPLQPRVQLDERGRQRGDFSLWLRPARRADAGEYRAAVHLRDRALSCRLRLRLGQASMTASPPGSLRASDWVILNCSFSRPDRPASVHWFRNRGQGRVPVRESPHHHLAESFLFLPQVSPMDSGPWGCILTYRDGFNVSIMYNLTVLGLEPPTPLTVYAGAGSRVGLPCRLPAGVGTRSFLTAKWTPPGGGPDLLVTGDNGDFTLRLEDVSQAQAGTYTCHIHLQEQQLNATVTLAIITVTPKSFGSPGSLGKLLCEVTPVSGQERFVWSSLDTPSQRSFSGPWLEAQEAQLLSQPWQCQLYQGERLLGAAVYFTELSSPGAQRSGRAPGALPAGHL
Method: 25 μl/well of A375 cells (10000 cells/well) were seeded into tissue culture treated 384-well plates (Corning, 3701) and incubated at 37° C. overnight. […] After washing (1×90 μl in PBST) cells were fixed by addition of 30 μl/well glutaraldehyde to a final concentration of 0.05% (Sigma Cat.No: G5882), 10 min at room temperature. After washing (3×90 μl/well with PBST-buffer) 25 μl/well Poly-HRP40-Streptavidin (Fitzgerald, 65R-S104PHRPx) was added in a 1:2000 or 1:8000 dilution and incubated at RT for 1 h. After washing (3×90 μl/well with PBST-buffer) 25 μl/well TMB substrate (Roche, #11835033001) was added and incubated for 2 to 10 min. Measurement took place on a Tecan Safire 2 instrument at 370/492 nm.

[5] = target: T4, human Fc tagged human Lag3 extra cellular domain (human, UniProt P18627 29-450, biotinylated in the epitope binning, the SA CAP SPR and the FACS competition assay); assay: FACS, inhibition of biotinylated Lag3:Fc binding to MHC-II on A375 cells (competitor MHC-II); antibody 10 µg/ml
T4 construct: In-house fusion; also called huLag3-Fc; biotinylated, huFc-tagged huLag3; not shown: human Fc tag
T4 sequence: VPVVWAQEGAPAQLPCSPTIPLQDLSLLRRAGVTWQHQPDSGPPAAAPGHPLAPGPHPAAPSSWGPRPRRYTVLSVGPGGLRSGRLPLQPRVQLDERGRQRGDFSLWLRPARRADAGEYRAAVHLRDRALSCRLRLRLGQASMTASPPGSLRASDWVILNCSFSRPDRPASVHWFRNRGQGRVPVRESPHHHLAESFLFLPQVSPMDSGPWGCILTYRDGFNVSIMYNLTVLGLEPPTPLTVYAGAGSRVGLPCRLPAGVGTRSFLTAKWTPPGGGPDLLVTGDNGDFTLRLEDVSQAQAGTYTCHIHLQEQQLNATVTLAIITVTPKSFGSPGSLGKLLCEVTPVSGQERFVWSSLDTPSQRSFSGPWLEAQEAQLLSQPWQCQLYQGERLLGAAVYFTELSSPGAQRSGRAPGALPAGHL
Method: This analysis was studied in a FACS competition experiment: A375 cells (ATCC, #CRL-1619) were cultured for 2-3 passages in EM Eagle's medium supplemented with EBSS (PAN, cat.no. #P04-00509), 10% FBS, 2 mM L-Glutamin, 1×NEAA and 1× Sodium Pyruvate. All antibodies, were diluted in FACS buffer to a final concentration of 20 μg/ml in 25 μl (in 96well U-bottom plates). […] A375 cells were washed with PBS and adjusted to 3×10⁶ cells/ml in PBS. 100 μl were seeded per well in a 96well V-bottom plate. Plates were centrifuged and supernatant was removed. […] After this, cells were washed with 200 μl FACS buffer. […] After staining, cells were again washed and then transferred in 150 μl FACS buffer (PBS/2% FBS) to a U-bottom plate and analyzed on a FACS Canto-II using an HTS module.
All antibodies were used at 10 μg/ml final concentration.

Binder	EC50 [nM] in Jurkat LAG3 + SED + Raji (NFAT luciferase), 1st assay [1]	EC50 [nM] in Jurkat LAG3 + SED + Raji (NFAT luciferase), 2nd assay [1]	EC50 [nM] in Jurkat LAG3 + SED + Raji (NFAT luciferase), 3rd assay [1]	CHO-cell ELISA inflexion point [2]	% pos. (cynomolgus LAG3 on cells [3])	GeoMean (cynomolgus LAG3 on cells [3])	% positive cyno cells (PBLs) after CD3/CD28 activation (cynomolgus LAG3 on cells [4])	IC50 (biotinylated-Lag3)	% Inhibition [5]
aLAG3(0414) (antibody, V domains shown) VH: EVQLLESGGGLVQPGGSLRLSCAASGFIFDDYTMNWVRQAPGKGLEWVAVISWDGGGTYYTDSVKGRFTISRDDFKNTLYLQMNSLRAEDTAVYYCAKGLTDTTLYGSDYWGQGTLVTVSS VL: DIQMTQSPSSLSASVGDRVTITCRASQSISSYLNWYQQKPGKAPKLLIYAASTLQSGVPSRFSGSGSGTDFTLTISSLQPEDFATYYCQQTYSSPLTFGGGTKVEIKG	1.1 nM	1 nM	1.8 nM	48.1 ng/mL	81.6%	9170	43%	0.9 nM	67.3%
aLAG3(0411) (antibody, V domains shown, also called aLAG3 (411)) VH: EVHLLESGGGLVQPGGSLRLSCAASGFIVDDYTMNWVRQAPGKGLEWVSVISWDGGATYYADSVKGRFTISRDDFKNTLYLQMNSLRAEDTAVYYCAKGLTDDTLYGSDYWGQGTLVTVSS VL: DIQMTQSPSSLSASVGDRVTITCRASQSIVSYLNWYQQKPGKAPKLLIYASSSLQSGVPSRFSGSGSGTDFTLTISSLQPEDFATYYCQQTYSTPLTFGGGTKVEIK	1.1 nM	1 nM		41.3 ng/mL	88.6%	11000	46.6%	0.8 nM	45.6%
aLAG3(0416) (antibody, V domains shown) VH: EVQLVESGGGLVQPGGSLRLACAASGFTFSDYAMSWVRQAPGKGLEWVSGIDNSGYYTYYTDSVKGRFTISRDDVKNTLYLQMNSLRAEDTAVYLCTKTHSGLIVNDAFDIWGQGTMVTVSS VL: DIQLTQSPSSLSASVGDRVTITCRASQSISSYLNWYQQKPGKAPKLLIYDASSLESGVPSRFSGSGSGTDATLTISSLQPEDFATYYCQQSYSTPLTFGGGTKVEIKG	3.1 nM	2.5 nM	3.5 nM	37.2 ng/mL	67.9%	4220	38.9%	0.9 nM	68.6%
aLAG3(0417) (antibody, V domains shown, also called aLAG3 (417)) VH: EVQLVESGGGLVQPGGSLRLACAASGFTFSDYAMSWVRQAPGKGLEWVSGIDNSGYYTYYTDSVKGRFTISRDDVKNTLYLQMNSLRAEDTAVYLCTKTHSGLIVNDAFDIWGQGTMVTVSS VL: not shown	1 nM			27.8 ng/mL	75.9%	7120	35.3%	0.9 nM	59.1%
aLAG3(0403) (antibody, V domains shown) VH: EVQLLESGGGLVQPGGSLRLSCAASGFTFDDYTMHWVRQAPGKGLEWVSLVSWDGGGTYYTNSVKGRFTISRDNSKNTLYLQMNSLRAEDTAVYFCAKAITDTSLYGYDYWGQGILVTVSS VL: not shown				30.9 ng/mL	82%	7460	44.2%	0.9 nM	34.9%
